Key:
Human Integrin α7β1 [1] = biological target: T1, Human Integrin α7β1 (human, UniProt Q13683 34-1038; P05556 21-728, limits assumed); experiment: kinetics with RU read-out, integrin captured at 0.25 µg/mL, antibody as analyte, 1:1 binding model
T1 construct: also called human α7β1 integrin

Mouse Integrin α7β1 [2] = biological target: T2, Mouse Integrin α7β1 (mouse, UniProt Q61738 34-1032; P09055 21-728, limits assumed); experiment: as above
T2 construct: also called murine α7β1 integrin

human α6β1 integrin = human α6β1 integrin (human, UniProt P23229 24-1011; P05556 21-728, limits assumed); experiment: dose titration on integrins (FIG. 11B)
human α6β1 integrin, sequence (P23229 other isoform, or with tags, fused parts or gaps limits assumed, chain 1 of 2): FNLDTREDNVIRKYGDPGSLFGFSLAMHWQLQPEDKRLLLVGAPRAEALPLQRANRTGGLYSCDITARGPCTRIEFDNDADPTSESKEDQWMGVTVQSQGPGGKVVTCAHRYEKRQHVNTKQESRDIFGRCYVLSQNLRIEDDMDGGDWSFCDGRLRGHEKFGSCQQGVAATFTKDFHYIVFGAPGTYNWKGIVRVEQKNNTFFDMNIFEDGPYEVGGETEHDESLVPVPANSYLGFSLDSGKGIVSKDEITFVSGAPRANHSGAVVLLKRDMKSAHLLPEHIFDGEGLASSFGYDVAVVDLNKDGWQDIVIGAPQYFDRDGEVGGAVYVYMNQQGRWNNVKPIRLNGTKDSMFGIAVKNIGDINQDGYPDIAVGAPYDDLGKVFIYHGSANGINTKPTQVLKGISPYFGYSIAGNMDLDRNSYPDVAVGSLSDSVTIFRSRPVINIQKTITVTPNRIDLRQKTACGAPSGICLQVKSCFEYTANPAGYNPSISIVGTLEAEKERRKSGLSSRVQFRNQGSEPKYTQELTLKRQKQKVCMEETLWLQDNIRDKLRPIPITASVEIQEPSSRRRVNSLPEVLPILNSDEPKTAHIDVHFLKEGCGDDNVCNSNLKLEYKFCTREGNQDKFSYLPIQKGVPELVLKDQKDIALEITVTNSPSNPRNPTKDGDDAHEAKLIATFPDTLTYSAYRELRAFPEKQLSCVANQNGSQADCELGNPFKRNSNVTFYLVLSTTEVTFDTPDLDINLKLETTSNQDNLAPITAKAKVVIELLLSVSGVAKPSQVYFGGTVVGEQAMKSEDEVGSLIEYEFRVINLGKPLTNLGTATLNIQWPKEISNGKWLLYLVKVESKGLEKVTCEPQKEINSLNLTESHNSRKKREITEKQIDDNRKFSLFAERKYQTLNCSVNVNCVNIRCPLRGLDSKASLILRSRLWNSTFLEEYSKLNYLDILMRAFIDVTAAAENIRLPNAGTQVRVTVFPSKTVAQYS
human α6β1 integrin, sequence (P05556 21-728 limits assumed, chain 2 of 2): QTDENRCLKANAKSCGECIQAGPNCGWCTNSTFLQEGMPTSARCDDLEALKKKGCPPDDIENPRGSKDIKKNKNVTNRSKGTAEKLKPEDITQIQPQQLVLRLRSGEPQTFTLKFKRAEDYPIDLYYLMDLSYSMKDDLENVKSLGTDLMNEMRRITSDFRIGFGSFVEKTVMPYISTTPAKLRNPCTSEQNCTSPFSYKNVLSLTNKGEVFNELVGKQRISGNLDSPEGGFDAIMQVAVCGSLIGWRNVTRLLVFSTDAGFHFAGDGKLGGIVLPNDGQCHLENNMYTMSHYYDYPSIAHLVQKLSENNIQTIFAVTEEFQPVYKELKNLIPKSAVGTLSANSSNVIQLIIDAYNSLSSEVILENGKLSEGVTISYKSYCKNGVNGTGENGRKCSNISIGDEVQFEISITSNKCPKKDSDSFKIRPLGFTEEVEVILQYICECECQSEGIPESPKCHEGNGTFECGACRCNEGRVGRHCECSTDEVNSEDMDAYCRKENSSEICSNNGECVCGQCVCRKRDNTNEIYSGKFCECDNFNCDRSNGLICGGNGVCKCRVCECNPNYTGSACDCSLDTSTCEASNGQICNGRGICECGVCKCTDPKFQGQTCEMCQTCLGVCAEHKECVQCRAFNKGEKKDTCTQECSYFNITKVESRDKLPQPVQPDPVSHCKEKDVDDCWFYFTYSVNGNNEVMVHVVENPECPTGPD

human α5β1 integrin = human α5β1 integrin (human, UniProt P08648 42-995; P05556 21-728, limits assumed); experiment: dose titration on integrins (FIG. 11B)
[3] = biological target: cell surface integrin α7β1 (cells and species not stated); experiment: cell-based or functional assay
Human Integrin α7β1 [4] = biological target: T1, Human Integrin α7β1; experiment: comparison of the KD values of Table 8
Mouse Integrin α7β1 [5] = biological target: T2, Mouse Integrin α7β1; experiment: comparison of the KD values of Table 8
[6] = biological target: T3, human integrin alpha-7 (ITGA7) co-transfected with integrin beta-1 precursor (ITGB1) on HEK-293T cells, wild … (human, UniProt P05556 21-798, limits assumed); experiment: high-throughput flow cytometry on HEK-293T cells with ITGA7 + ITGB1 against vector alone, 0.5 µg/ml
T3 construct: whole, on cells; also called target protein; wild-type (WT) target protein
From the text: (§1) Conditions for binding and screening of monoclonal antibodies and Fabs using high-throughput flow cytometry were optimized using wild-type target protein cloned into a proprietary vector and expressed in HEK-293T cells. The target protein is human integrin alpha-7 (ITGA7; UniProt ID Q13683; SEQ ID NO: 24). The binding of the VL3VHK20TFT monoclonal antibody and the VL3VHK20TFT Fab to HEK-293T cells co-transfected (1:1) with integrin beta-1 precursor (ITGB1) and integrin subunit alpha 7 (ITGA7) or with vector alone (negative control) was evaluated by high-throughput flow cytometry. The antibodies 3C12, 6A11, A1-1a M20, and A1-1a M24 were used as positive controls for ITGA7 binding.
(§2) Each point in FIG. 15 and FIG. 16 represents the mean of four replicates. The optimal screening concentration for each antibody or Fab (outlined in a box) was determined based on the raw signal values and signal-to-background calculations.

[7] = biological target: T3, human integrin alpha-7 (ITGA7) …; experiment: high-throughput flow cytometry on HEK-293T cells with ITGA7 + ITGB1 against vector alone, 2.0 µg/ml
From the text: as §1, §2

[8] = biological target: T4, ITGA7 mutant R958A on HEK-293T cells (human, UniProt P05556 21-798); experiment: high-throughput flow cytometry on HEK-293T cells with the ITGA7 alanine mutant, high stringency, normalized to wild type
T4 construct: whole, on cells; Clone of the alanine-scan library of ITGA7
Method: (§3) In order to map the epitope of VL3VHK20TFT, an alanine-scan library of the target protein (ITGA7; SEQ ID NO: 24) was constructed. Shotgun mutagenesis epitope mapping was performed using the general procedure described in Davidson and Doranz, 2014, Immunology 143, 13-20. Briefly, a mutation library of the target protein was created by high-throughput, site-directed mutagenesis. Each residue was individually mutated to alanine, with alanine codons mutated to serine. The mutant library was arrayed in 384-well microplates and transiently transfected into HEK-293T cells. Following transfection, cells were incubated with the indicated antibodies (VL3VHK20TFT Fab or 6A11 monoclonal antibody (mAh)) at concentrations predetermined using an independent immunofluorescence titration curve on wild type protein. The antibodies were detected using an Alexa Fluor 488-conjugated secondary antibody, and mean cellular fluorescence was determined using Intellicyt® iQue flow cytometry platform. […] This counterscreen strategy facilitates the exclusion of mutants that are locally misfolded or that have an expression defect.
(§4) The binding of VL3VHK20TFT Fab and 6A11 mAh to each mutant clone in an alanine scanning library of ITGA7 mutants was determined, in duplicate, by high-throughput flow cytometry. For each point, background fluorescence was subtracted from the raw data, which were then normalized to antibody (Ab) reactivity with wild-type (WT) target protein. For each mutant clone, the mean binding value was plotted as a function of expression (represented by control reactivity). To identify preliminary primary critical clones (red circles), a threshold (dashed lines) of >70% WT binding to control Ab and <20% WT binding to test Abs was applied.

[9] = biological target: T5, ITGA7 mutant M976A on HEK-293T cells (human, UniProt P05556 21-798); experiment: as above
T5 construct: whole, on cells; Clone of the alanine-scan library of ITGA7
Method: as §3, §4

[10] = biological target: T6, ITGA7 mutant W978A on HEK-293T cells (human, UniProt P05556 21-798); experiment: as above
T6 construct: whole, on cells; Clone of the alanine-scan library of ITGA7
Method: as §3, §4

[11] = biological target: T7, ITGA7 mutant W979A on HEK-293T cells (human, UniProt P05556 21-798); experiment: as above
T7 construct: whole, on cells; Clone of the alanine-scan library of ITGA7
Method: as §3, §4

T1 sequence (Q13683 other isoform, or with tags, fused parts or gaps limits assumed, chain 1 of 2): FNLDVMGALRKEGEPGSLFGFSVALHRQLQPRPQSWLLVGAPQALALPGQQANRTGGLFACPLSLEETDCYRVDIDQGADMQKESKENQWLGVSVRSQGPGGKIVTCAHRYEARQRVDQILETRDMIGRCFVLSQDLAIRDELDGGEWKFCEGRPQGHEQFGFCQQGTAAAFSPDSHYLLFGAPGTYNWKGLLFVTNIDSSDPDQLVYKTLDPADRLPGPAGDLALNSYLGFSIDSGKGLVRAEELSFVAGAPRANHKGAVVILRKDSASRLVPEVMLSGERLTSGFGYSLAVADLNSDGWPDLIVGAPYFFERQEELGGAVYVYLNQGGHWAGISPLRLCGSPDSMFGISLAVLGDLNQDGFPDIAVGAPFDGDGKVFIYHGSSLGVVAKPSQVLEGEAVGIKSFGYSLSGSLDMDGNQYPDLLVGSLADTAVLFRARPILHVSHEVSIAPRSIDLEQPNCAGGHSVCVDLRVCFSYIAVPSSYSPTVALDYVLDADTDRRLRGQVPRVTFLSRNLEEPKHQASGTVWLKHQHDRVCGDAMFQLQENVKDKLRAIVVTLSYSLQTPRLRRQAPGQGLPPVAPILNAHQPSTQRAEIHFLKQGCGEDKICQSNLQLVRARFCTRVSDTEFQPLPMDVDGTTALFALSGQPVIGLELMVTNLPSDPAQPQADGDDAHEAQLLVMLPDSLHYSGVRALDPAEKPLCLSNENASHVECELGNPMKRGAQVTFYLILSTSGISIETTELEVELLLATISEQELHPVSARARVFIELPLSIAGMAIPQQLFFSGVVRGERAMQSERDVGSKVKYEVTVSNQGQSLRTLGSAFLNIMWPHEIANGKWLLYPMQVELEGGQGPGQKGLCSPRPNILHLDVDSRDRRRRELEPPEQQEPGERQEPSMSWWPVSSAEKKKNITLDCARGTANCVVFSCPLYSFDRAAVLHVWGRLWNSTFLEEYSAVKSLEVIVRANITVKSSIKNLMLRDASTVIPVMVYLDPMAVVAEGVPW
T1 sequence (P05556 21-728 limits assumed, chain 2 of 2): as the sequence (P05556 21-728 limits assumed, chain 2 of 2) above
T2 sequence (Q61738 other isoform, or with tags, fused parts or gaps limits assumed, chain 1 of 2): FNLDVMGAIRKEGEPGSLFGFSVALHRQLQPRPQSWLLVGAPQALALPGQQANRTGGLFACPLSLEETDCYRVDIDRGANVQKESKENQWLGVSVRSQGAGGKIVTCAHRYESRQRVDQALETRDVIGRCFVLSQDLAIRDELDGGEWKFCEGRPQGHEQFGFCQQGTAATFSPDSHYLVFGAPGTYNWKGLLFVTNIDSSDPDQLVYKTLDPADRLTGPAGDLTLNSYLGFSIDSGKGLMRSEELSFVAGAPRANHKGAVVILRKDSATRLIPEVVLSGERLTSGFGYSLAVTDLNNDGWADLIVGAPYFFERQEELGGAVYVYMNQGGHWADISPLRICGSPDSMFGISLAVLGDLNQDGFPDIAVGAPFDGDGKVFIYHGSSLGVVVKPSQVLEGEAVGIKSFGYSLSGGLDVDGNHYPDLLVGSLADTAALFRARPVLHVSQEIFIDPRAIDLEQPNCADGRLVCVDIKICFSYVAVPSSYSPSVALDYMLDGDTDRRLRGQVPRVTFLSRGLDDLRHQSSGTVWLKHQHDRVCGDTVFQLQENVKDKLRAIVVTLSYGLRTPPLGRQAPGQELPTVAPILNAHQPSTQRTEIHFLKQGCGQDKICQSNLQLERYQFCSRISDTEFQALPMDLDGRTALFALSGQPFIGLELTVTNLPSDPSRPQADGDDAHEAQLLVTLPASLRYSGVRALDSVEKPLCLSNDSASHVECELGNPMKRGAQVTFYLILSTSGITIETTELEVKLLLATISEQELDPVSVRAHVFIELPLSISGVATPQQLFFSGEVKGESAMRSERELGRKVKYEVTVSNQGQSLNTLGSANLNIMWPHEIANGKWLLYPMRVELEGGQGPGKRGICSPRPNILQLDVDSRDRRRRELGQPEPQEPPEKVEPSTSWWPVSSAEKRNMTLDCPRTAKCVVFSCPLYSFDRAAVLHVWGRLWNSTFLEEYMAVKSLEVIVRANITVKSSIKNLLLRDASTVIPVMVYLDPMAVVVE
T2 sequence (P09055 21-728 limits assumed, chain 2 of 2): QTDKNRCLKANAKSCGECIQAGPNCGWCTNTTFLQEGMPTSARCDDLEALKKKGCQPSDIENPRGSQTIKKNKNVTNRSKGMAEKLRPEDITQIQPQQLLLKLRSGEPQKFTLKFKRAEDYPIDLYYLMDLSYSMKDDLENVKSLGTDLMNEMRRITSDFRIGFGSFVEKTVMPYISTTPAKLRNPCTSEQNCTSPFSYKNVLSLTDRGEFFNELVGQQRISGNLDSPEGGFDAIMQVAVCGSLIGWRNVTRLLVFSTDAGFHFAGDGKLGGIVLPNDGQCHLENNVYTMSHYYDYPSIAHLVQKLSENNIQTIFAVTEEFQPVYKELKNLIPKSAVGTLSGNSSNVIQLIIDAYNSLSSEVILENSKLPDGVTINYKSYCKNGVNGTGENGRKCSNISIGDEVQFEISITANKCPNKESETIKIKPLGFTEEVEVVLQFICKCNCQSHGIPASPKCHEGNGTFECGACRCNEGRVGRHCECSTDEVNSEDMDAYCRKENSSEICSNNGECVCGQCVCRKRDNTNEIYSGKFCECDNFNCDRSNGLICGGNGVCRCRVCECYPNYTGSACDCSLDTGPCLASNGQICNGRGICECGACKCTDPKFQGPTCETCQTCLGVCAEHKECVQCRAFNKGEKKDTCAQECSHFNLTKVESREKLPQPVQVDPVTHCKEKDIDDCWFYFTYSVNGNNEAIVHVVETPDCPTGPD

B1: mouse α7β1 antibody VLVH (Chimera with human IgG4 Fc) (antibody, V domains shown)
VH: QVQLQQPGAELVKPGASVKLSCKASGYNFTKYWINWVKQRPGQGLEWIGIIYPGSSTSNYNEKFKTKATLTVEISSTTAYMQLSSLTSDDSAVYYCVRGDDWGQGTTLTVSS
VL: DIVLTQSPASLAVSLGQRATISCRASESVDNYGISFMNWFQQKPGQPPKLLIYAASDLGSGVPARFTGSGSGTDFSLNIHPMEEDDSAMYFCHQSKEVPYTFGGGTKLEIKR
notes: also called hIgG4-23; murine antibody (VLVH)
Kd (Human Integrin α7β1 [1]): 1.96 nM | koff (Human Integrin α7β1 [1]): 0.000652 s⁻¹ | kon (Human Integrin α7β1 [1]): 333000 M⁻¹ s⁻¹ | Kd (Mouse Integrin α7β1 [2]): 21.8 nM | koff (Mouse Integrin α7β1 [2]): 0.00213 s⁻¹ | kon (Mouse Integrin α7β1 [2]): 97600 M⁻¹ s⁻¹

B2: antibody M36 (antibody, V domains shown)
VH: B1 VH
VL: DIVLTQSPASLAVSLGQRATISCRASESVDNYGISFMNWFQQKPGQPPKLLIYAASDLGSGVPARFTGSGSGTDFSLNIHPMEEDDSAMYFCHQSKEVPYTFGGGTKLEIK
notes: Mouse hybridoma monoclonal antibody; also called M36 agonist antibody
binding result (human α6β1 integrin): no binding | binding result (human α5β1 integrin): no binding

B3: antibody M38 (antibody, V domains shown)
VH: B1 VH
VL: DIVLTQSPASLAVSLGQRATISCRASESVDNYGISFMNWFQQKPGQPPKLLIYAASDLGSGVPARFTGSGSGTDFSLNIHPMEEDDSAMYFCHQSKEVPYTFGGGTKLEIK
notes: Mouse hybridoma monoclonal antibody
binding result (human α6β1 integrin): no binding | binding result (human α5β1 integrin): no binding

B4: VL3VHK20TFT monoclonal antibody (antibody, human IgG4 S228P, kappa, V domains shown)
VH: QVQLVQSGAEVKKPGASVKVSCKASGYTFTKYWINWVRQAPGQGLEWMGIIYPGSSTSNYNEKFKTRVTMTVDTSTSTAYMELSSLRSEDTAVYYCVKNDNWGQGTLVTVSS
VL: DIQMTQSPSSLSASVGDRVTITCRASESVDNYGISFMNWFQQKPGKAPKLLIYAASDLGSGVPSRFSGSGSGTDFTLTISSLQPEDFATYYCHQSKEVPYTFGQGTKLEIKR
notes: Humanized M36/M38; also called hIgG4-36; hIgG-36
cell index (integrin α7β1 mediated cell adhesion) of DMD myoblast cells on laminin 211 [3]: ~5 fold | fold lower KD than the chimera antibody VLVH (Human Integrin α7β1 [4]): ~3.33 fold | fold lower KD than the chimera antibody VLVH (Mouse Integrin α7β1 [5]): ~11.1 fold | Kd (Human Integrin α7β1 [1]): 0.593 nM | koff (Human Integrin α7β1 [1]): 0.000153 s⁻¹ | kon (Human Integrin α7β1 [1]): 258000 M⁻¹ s⁻¹ | Kd (Mouse Integrin α7β1 [2]): 1.96 nM | koff (Mouse Integrin α7β1 [2]): 0.000469 s⁻¹ | kon (Mouse Integrin α7β1 [2]): 239000 M⁻¹ s⁻¹ | Signal:Background [6]: 18 ratio signal:background

B5: VL3VHK20TFT Fab (Fab, V domains shown)
VH: B4 VH
VL: DIQMTQSPSSLSASVGDRVTITCRASESVDNYGISFMNWFQQKPGKAPKLLIYAASDLGSGVPSRFSGSGSGTDFTLTISSLQPEDFATYYCHQSKEVPYTFGQGTKLEIK
notes: Fab of VL3VHK20TFT; also called VL3VHK20TFT Fab HS; Test Fab
Signal:Background [7]: 12 ratio signal:background | Binding Reactivity (% WT) [8]: 27.8 % WT | Binding Reactivity (% WT) [9]: 29.5 % WT | Binding Reactivity (% WT) [10]: -0.3 % WT | Binding Reactivity (% WT) [11]: -0.7 % WT

— US20210147526A1 (PLIANT THERAPEUTICS, published 2021)
